The values that follow come from article PMC6952535.

The target of the test is 6xHis-hSTAT3_(136-705) (human) (UniProt P40763). The test can be described thus: ITC. On the technique in general: Isothermal titration calorimetry measures the heat released or taken up as one component is titrated into another.
Sequence of UniProt P40763 (P40763 136-705): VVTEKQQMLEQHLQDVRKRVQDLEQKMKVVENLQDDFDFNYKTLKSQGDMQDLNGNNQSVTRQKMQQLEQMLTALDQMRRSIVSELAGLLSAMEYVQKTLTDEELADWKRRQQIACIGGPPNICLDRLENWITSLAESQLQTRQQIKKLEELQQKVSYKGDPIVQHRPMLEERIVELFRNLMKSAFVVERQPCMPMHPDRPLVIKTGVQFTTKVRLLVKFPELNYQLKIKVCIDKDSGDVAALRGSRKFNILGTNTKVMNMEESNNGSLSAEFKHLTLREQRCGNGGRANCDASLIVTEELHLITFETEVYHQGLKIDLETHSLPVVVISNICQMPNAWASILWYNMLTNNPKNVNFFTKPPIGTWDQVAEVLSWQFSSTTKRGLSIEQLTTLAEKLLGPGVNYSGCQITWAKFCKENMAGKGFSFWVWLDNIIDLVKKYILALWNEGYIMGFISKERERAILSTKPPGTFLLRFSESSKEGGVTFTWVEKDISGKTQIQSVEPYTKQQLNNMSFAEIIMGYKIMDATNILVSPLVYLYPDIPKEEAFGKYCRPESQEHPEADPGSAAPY

As a reminder, the Kd is the free concentration of one partner at which half of the binding sites on the other are occupied at equilibrium, for simple one-to-one binding. High values mean lower affinity, low ones higher affinity. “SarA phospho-peptide (ten residues spanning the YxxQ motif, phosphorylated at Y167)” displayed a Kd of 0.143 µM. As for “gp130 phosphopeptide containing YxxQ (phosphorylated at Y767)”, the figure is 2.29 µM.
